# Laboratory results as given in EP2404612A1, “Diagnosis, prophylaxis and therapy of Alzheimer's disease and other neurodementing disorders” (Balakrishnan, Karthikeyan, priority 2010, dated 2012).
# Assay: CD spectra analysis of ß-sheet conformation
# Type: physicochemical
# Details: 62.5 µM in sodium carbonate (0.05 mM)/ SDS (37.5 mM) buffer, 20°C, instantly after resuspending in buffer
# Method: To compare the ß-sheets formed by the wild type and the mutated trimer, respectively, CD spectra analysis was performed. Both peptides were measured at a concentration of 62.5 µM in sodium carbonate (0.05 mM)/ SDS (37.5 mM) buffer with a JASCO J-810 spectroplarimeter (JASCO, Easton, MD, USA). Far-UV CD spectra (190-260 nm) were recorded at 20°C using a quartz cuvette with an optical path length of 1 mm. The scanning speed was set at 20 nm/min with a response time 4 second and bandwidth 2 nm.
substance,measurement,value
"wild type Aβ: wild type Aβ peptide compared with mutated Aβ (1-40; G29Ile,G33Ile) in CD spectra; length not stated",ß-sheet,1%
